± gives the standard deviation of the averaged measurements.
Tested on: ATP
Test: switch fluorescence ratio, 500 uM ATP over buffer (Cy3 cluster intensity, sum of 5 cycles each) (fold (ratio)); higher = stronger signal-on switching upon ATP binding; sequences stand for … in TCGTCGGCAGCGTCAGATGTGTATAAGAGACAGTTTTTTTTTTTTTTTTTTTTTTTTT…TC
Details: aptamer strand: ATP DNA aptamer (quencher-CACCTGGGGGAGTATTGCGGAGGAAGG + anchor), 100 nM annealed; ATP concentration: 500 uM
In short: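 The quencher-labelled ATP aptamer, at 100 nM, was annealed to Cy3-labelled switching-strand clusters on a modified Illumina MiSeq flow-cell. The clusters were imaged in selection buffer, then after 15 min with 500 uM ATP at 22 °C, and this buffer/ATP cycle ran five times with NaOH stripping and re-annealing between runs. Per-cluster fluorescence ratios, summed target-cycle over summed buffer-cycle Cy3 intensity, were averaged per switch-domain sequence. Clusters outside 100-1000 RFU were excluded.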
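Also: ATP exposure 15 min at 22 °C before imaging.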

GCTGGTAGGG
switch fluorescence ratio: 1.01 ± 0.026

ATGGTGTCGA
switch fluorescence ratio: 0.947 ± 0.029

GATTGGTGAG
switch fluorescence ratio: 1.001 ± 0.0046

AATAAGGCAT
switch fluorescence ratio: 1.01 ± 0.024

TATGGAGTTG
switch fluorescence ratio: 0.992 ± 0.032

TATGAAAATC
switch fluorescence ratio: 0.983 ± 0.03

GGCAGTCGTA
switch fluorescence ratio: 0.955 ± 0.081

ACGGAGCCTT
switch fluorescence ratio: 1.32 ± 0.036

CCTGAGGGCG
switch fluorescence ratio: 1.037 ± 0.01

ACGAAAGTCT
switch fluorescence ratio: 1.03 ± 0.041

TGAGGTATTA
switch fluorescence ratio: 1.0075 ± 0.00077

ATAGCTATAA
switch fluorescence ratio: 1.003 ± 0.0029

AAATGCAAAG
switch fluorescence ratio: 0.991 ± 0.016

CAGGGGGTGC
switch fluorescence ratio: 1.03 ± 0.072

AGCCTATTGT
switch fluorescence ratio: 0.972 ± 0.035

ATGTAAATGA
switch fluorescence ratio: 0.9855 ± 0.0083

TATTTTTGCG
switch fluorescence ratio: 0.97 ± 0.05

ATAAAGGGAT
switch fluorescence ratio: 1 ± 0.034

CGTATTATTA
switch fluorescence ratio: 0.988 ± 0.03

GATTTGTGCA
switch fluorescence ratio: 0.9952 ± 0.0014

TTTTTGTGAA
switch fluorescence ratio: 0.995 ± 0.033

AGGTGTAGTG
switch fluorescence ratio: 0.987 ± 0.016

TGGGTAAATT
switch fluorescence ratio: 0.983 ± 0.014

TTACTCTTCG
switch fluorescence ratio: 1.062 ± 0.0074

GGGAAGAACT
switch fluorescence ratio: 1.06 ± 0.014

AATAAGATTT
switch fluorescence ratio: 1.02 ± 0.026

AGTGGTTGAA
switch fluorescence ratio: 0.99 ± 0.028

CAAAAATTAT
switch fluorescence ratio: 1.03 ± 0.044

AGTGGCCGTC
switch fluorescence ratio: 0.974 ± 0.051

GGGGTTTTTA
switch fluorescence ratio: 0.995 ± 0.034

GCTTTTTTGG
switch fluorescence ratio: 0.994 ± 0.025

CGATAGGGGC
switch fluorescence ratio: 1.08 ± 0.14

TAAGAGGCCA
switch fluorescence ratio: 1.02 ± 0.017

ACTGGACTGT
switch fluorescence ratio: 1.18 ± 0.026

GGGATAAGCC
switch fluorescence ratio: 1 ± 0.012

CTGTAGGCCC
switch fluorescence ratio: 1.05 ± 0.097

TCTTGACTAG
switch fluorescence ratio: 1.06 ± 0.053

TACTCATGAA
switch fluorescence ratio: 1.038 ± 0.0037

TAGGGGAGGA
switch fluorescence ratio: 0.993 ± 0.035

TGATTCAGTA
switch fluorescence ratio: 0.974 ± 0.011

TTTCTTGTAT
switch fluorescence ratio: 1.02 ± 0.016

TGGGGAGCTT
switch fluorescence ratio: 0.99 ± 0.023

CAGGATAAAT
switch fluorescence ratio: 0.979 ± 0.06

AGATCTGCAT
switch fluorescence ratio: 1.11 ± 0.019

AGTATGTAAA
switch fluorescence ratio: 1.02 ± 0.017

GTGTTTTGGT
switch fluorescence ratio: 0.98 ± 0.024

TGTGGTTTAC
switch fluorescence ratio: 0.978 ± 0.017

AGATCGCTTT
switch fluorescence ratio: 1.02 ± 0.029

ATGCTGACCT
switch fluorescence ratio: 1.01 ± 0.034

ATTTGGCATC
switch fluorescence ratio: 1.41 ± 0.47

CGACCACGTA
switch fluorescence ratio: 1.12 ± 0.029

GTAGGGGCTG
switch fluorescence ratio: 1 ± 0.074

AGTAGGTCTG
switch fluorescence ratio: 1.04 ± 0.046

GGGTAAGTTG
switch fluorescence ratio: 0.962 ± 0.05

AGTAAAATGT
switch fluorescence ratio: 1 ± 0.021

GAATATTACC
switch fluorescence ratio: 1.06 ± 0.014

GACGCAGGGT
switch fluorescence ratio: 1.34 ± 0.25

GCCCCACCTT
switch fluorescence ratio: 1.08 ± 0.021

GGATGCTGGG
switch fluorescence ratio: 1 ± 0.015

TATCAGTCGT
switch fluorescence ratio: 0.988 ± 0.032

GATGTGGTGG
switch fluorescence ratio: 0.99 ± 0.034

TAGAGTGATG
switch fluorescence ratio: 0.943 ± 0.013

CGAATAAGAA
switch fluorescence ratio: 0.9383 ± 0.0074

AATGTCTCAG
switch fluorescence ratio: 1.014 ± 0.0091

ATTTTCCAGG
switch fluorescence ratio: 1.49 ± 0.26

TGGGGATTGC
switch fluorescence ratio: 1.02 ± 0.048

TTAATGTTCA
switch fluorescence ratio: 1 ± 0.031

ATGTCACAAA
switch fluorescence ratio: 1.03 ± 0.059

CGTTCAATGT
switch fluorescence ratio: 1.026 ± 0.0085

GTGGGGATTT
switch fluorescence ratio: 1.01 ± 0.013

AAATGTTTAC
switch fluorescence ratio: 1.034 ± 0.0095

TTTGTATCAT
switch fluorescence ratio: 1.017 ± 0.0076

ATAGAATGCG
switch fluorescence ratio: 0.9955 ± 0.0012

AACAGGATCG
switch fluorescence ratio: 1.01 ± 0.053

TATTTTACGC
switch fluorescence ratio: 1.01 ± 0.024

GATCGATCGT
switch fluorescence ratio: 1 ± 0.027

TTGGTCGGGG
switch fluorescence ratio: 0.991 ± 0.023

AGCAGCGGGC
switch fluorescence ratio: 0.997 ± 0.043

GGGGTTAAAA
switch fluorescence ratio: 0.973 ± 0.024

TCTTATAATA
switch fluorescence ratio: 0.988 ± 0.032

GTGATGGCAG
switch fluorescence ratio: 0.9846 ± 0.0053

GGGCTTGTGT
switch fluorescence ratio: 0.993 ± 0.032

GGGAATCGGT
switch fluorescence ratio: 0.978 ± 0.058

AGGGCGGTCT
switch fluorescence ratio: 1.07 ± 0.18

TCATAAGTGC
switch fluorescence ratio: 0.977 ± 0.011

CGGAAGTATG
switch fluorescence ratio: 1.04 ± 0.025

TAACCAGTGG
switch fluorescence ratio: 1.07 ± 0.021

TATTAATCGA
switch fluorescence ratio: 1 ± 0.016

ATCGGTCTGT
switch fluorescence ratio: 0.975 ± 0.018

GGGTGGAAAG
switch fluorescence ratio: 0.984 ± 0.041

TGGGTGCATT
switch fluorescence ratio: 1.014 ± 0.0044

TCCCTGGACT
switch fluorescence ratio: 1.023 ± 0.0099

TGCATCATTG
switch fluorescence ratio: 0.988 ± 0.039

AGGTGGGCTG
switch fluorescence ratio: 0.963 ± 0.024

TACCAAACGG
switch fluorescence ratio: 2.23 ± 1.4

ATTATATAAT
switch fluorescence ratio: 1.01 ± 0.046

GTGGGGGACG
switch fluorescence ratio: 0.982 ± 0.021

AGGGTTTAGT
switch fluorescence ratio: 1 ± 0.01

ATTTGTAAGT
switch fluorescence ratio: 0.9587 ± 0.006

GGTCTGGGGG
switch fluorescence ratio: 0.955 ± 0.012

GAGTTTTGGC
switch fluorescence ratio: 0.952 ± 0.09

CGACGATCGT
switch fluorescence ratio: 0.971 ± 0.028

AACTTCGGTG
switch fluorescence ratio: 0.984 ± 0.014

AACATTAAGC
switch fluorescence ratio: 1.04 ± 0.021

TTTTCAATCT
switch fluorescence ratio: 0.9933 ± 0.0073

GGCTGGTAGA
switch fluorescence ratio: 1 ± 0.02

CCGGTCAGTG
switch fluorescence ratio: 1.066 ± 0.0088

TTACAAGTTA
switch fluorescence ratio: 1.05 ± 0.064

GCCGGGGTGA
switch fluorescence ratio: 1.04 ± 0.043

GACTCAGTTG
switch fluorescence ratio: 0.9947 ± 0.0084

TTTACTTATT
switch fluorescence ratio: 1 ± 0.019

TGAAAGGGAT
switch fluorescence ratio: 0.988 ± 0.077

GCACTGTGGG
switch fluorescence ratio: 1 ± 0.016

GGAATCCTTT
switch fluorescence ratio: 0.998 ± 0.0088

GGGGTTGGG
switch fluorescence ratio: 1.015 ± 0.0031

TGGGTTAAAT
switch fluorescence ratio: 0.995 ± 0.023

GAGGGGGGGA
switch fluorescence ratio: 1 ± 0.044

AAGTTAGGTC
switch fluorescence ratio: 0.969 ± 0.047

TTATTTAGAC
switch fluorescence ratio: 1 ± 0.024

TACCGGGTTT
switch fluorescence ratio: 0.9914 ± 0.0059

AGATCCATTT
switch fluorescence ratio: 0.991 ± 0.055

GATTAGGCTC
switch fluorescence ratio: 1.03 ± 0.082

TTGTGGAGCT
switch fluorescence ratio: 0.999 ± 0.016

TTGTTCGTTT
switch fluorescence ratio: 0.986 ± 0.025

AGTTTCCGGA
switch fluorescence ratio: 0.992 ± 0.016

ATGGCAGGTT
switch fluorescence ratio: 1.01 ± 0.021

TCCTAAAAGT
switch fluorescence ratio: 1.01 ± 0.021

ATCGGATATA
switch fluorescence ratio: 0.989 ± 0.015

ACTTGGGATG
switch fluorescence ratio: 0.982 ± 0.037

TGGGTAGTGC
switch fluorescence ratio: 0.997 ± 0.029

TTAGTATGCT
switch fluorescence ratio: 0.9864 ± 0.0082

GGCATTCGAT
switch fluorescence ratio: 0.981 ± 0.03

AGTTTCTTAC
switch fluorescence ratio: 1.01 ± 0.024

GCATGAAGCA
switch fluorescence ratio: 1 ± 0.017

GAGGTACGTA
switch fluorescence ratio: 1.01 ± 0.027

TTTGTAAATA
switch fluorescence ratio: 1.008 ± 0.0069

GACGTAGGTC
switch fluorescence ratio: 1 ± 0.029

GTAAGGGGAT
switch fluorescence ratio: 0.988 ± 0.016

ACGGATTTGG
switch fluorescence ratio: 0.9926 ± 0.0095

CAAGGTTGTT
switch fluorescence ratio: 1 ± 0.011

AAGGTGTCGA
switch fluorescence ratio: 0.967 ± 0.019

AGGGCAGGGA
switch fluorescence ratio: 0.993 ± 0.017

GGGGGTCGCG
switch fluorescence ratio: 0.991 ± 0.034

TAGGACGTGC
switch fluorescence ratio: 0.9627 ± 0.0032

CGTGGCTATG
switch fluorescence ratio: 0.959 ± 0.019

ATAGTATCTT
switch fluorescence ratio: 1 ± 0.021

TTAATTGAAG
switch fluorescence ratio: 0.958 ± 0.04

CCAAATAGGA
switch fluorescence ratio: 1.01 ± 0.013

TTGGCGGAGT
switch fluorescence ratio: 1.01 ± 0.032

GAATCCGGGA
switch fluorescence ratio: 1.05 ± 0.087

CGTAGGCGTA
switch fluorescence ratio: 0.98 ± 0.03

TAACGGTTTT
switch fluorescence ratio: 1.01 ± 0.033

ATAAAAGCTT
switch fluorescence ratio: 1.03 ± 0.014

GCGAGGTCGA
switch fluorescence ratio: 0.991 ± 0.038

AACGTCTTT
switch fluorescence ratio: 1.03 ± 0.071

GTGATTGCTA
switch fluorescence ratio: 0.9878 ± 0.0061

TGATATTGAG
switch fluorescence ratio: 1 ± 0.045

TATAAGACAT
switch fluorescence ratio: 1.03 ± 0.038

GGTTCCTATG
switch fluorescence ratio: 0.9909 ± 0.0079

AATTGGTCGT
switch fluorescence ratio: 0.965 ± 0.043

TTTGTAGGGG
switch fluorescence ratio: 0.981 ± 0.016

TCGCGCGGTG
switch fluorescence ratio: 0.978 ± 0.021

ATACAAAA
switch fluorescence ratio: 1.02 ± 0.048

CGCTGGGGAT
switch fluorescence ratio: 1.04 ± 0.027

TAATTGTAAG
switch fluorescence ratio: 0.979 ± 0.017

GTTTCATGAA
switch fluorescence ratio: 1.01 ± 0.018

TAAAGTATAA
switch fluorescence ratio: 0.972 ± 0.026

CATTGCTCTG
switch fluorescence ratio: 1.02 ± 0.026

ATATATGTGG
switch fluorescence ratio: 0.981 ± 0.057

TAGGAGGTGG
switch fluorescence ratio: 1.03 ± 0.041

TCATACTCAA
switch fluorescence ratio: 1.4 ± 0.018

TGGTAAAGGC
switch fluorescence ratio: 0.979 ± 0.042

CGGGGCTGGC
switch fluorescence ratio: 1.2 ± 0.13

AGTCATTAGG
switch fluorescence ratio: 1.03 ± 0.041

ATAGTGGGTG
switch fluorescence ratio: 0.997 ± 0.037

TTATATATGC
switch fluorescence ratio: 0.986 ± 0.028

GCTAAAAAGC
switch fluorescence ratio: 0.998 ± 0.033

TACTACTATT
switch fluorescence ratio: 1.03 ± 0.016

TGCTGTGTAC
switch fluorescence ratio: 1.084 ± 0.0095

ATTGTGCTGG
switch fluorescence ratio: 0.983 ± 0.018

CGCAGGCTTG
switch fluorescence ratio: 1.04 ± 0.043

TGCGTTCAAG
switch fluorescence ratio: 0.9721 ± 0.0056

GAGTGTGCGT
switch fluorescence ratio: 0.975 ± 0.036

GAAAGTGCAT
switch fluorescence ratio: 0.999 ± 0.042

CAAGCGTTGT
switch fluorescence ratio: 1.03 ± 0.036

TGGTATGCGG
switch fluorescence ratio: 1.02 ± 0.013

CTAAGTAGCC
switch fluorescence ratio: 1.01 ± 0.015

AGGGGGGTTC
switch fluorescence ratio: 0.994 ± 0.023

TTTTGTTGT
switch fluorescence ratio: 0.987 ± 0.024

GAAACCTATT
switch fluorescence ratio: 1.0142 ± 7.7e-05

TCTGGAATAA
switch fluorescence ratio: 1.66 ± 0.057

GTATTGTCAG
switch fluorescence ratio: 0.9663 ± 0.00064

GGATACGGGA
switch fluorescence ratio: 1.05 ± 0.084

AAAGAGGGGA
switch fluorescence ratio: 1.03 ± 0.016

TATGCTTTAA
switch fluorescence ratio: 1.01 ± 0.024

TTCCCTAGTT
switch fluorescence ratio: 1.004 ± 0.0029

TATTTAGGGA
switch fluorescence ratio: 0.987 ± 0.022

TCGAGTCATC
switch fluorescence ratio: 0.965 ± 0.019

TGTTGTGGGG
switch fluorescence ratio: 0.96 ± 0.025

GCCTAATGTT
switch fluorescence ratio: 0.957 ± 0.022
